These results are taken from a protein production outcome set (Wang et al. 2014).

This series in a line: label from the status in PepcDB records.

For “MPQRNDRSRSTPTTSPKNNSWFRMQAGHQSDADIYIYDEIGFWGVTAKQFISDLNALGDITHINLNINSPGGDVFEGIAIFNALKTHGASITVYVDGVAASMASVIAMVGKPVIMPENSFMMIHKPFGFTGGDAEDMRTYADLLDKVEAVLLPAYAQKTGKTTDEIAAMLADETWMSGAECLAHGFADQVTPAVKAMACIQSKRTEEFKKMPESIRNMITPPRNSAPRVQDDGPAASRTPVQAAAPVVDENSIRAQVLAEQKARVNGINDLFAMFGGRYQTLQAQCLADPECSLEQAREKLLNEMGRESTPSNKNTPXHIYAGNGNFVGDGIRQALMARAGFEKTERDNVYNGMTLREYARMSLTERGIGVSSYNPMQMVGAAFTHSTSDFGNILLDVANKAILQGWEDAPETYEQWTRKGQLSDFKIAHRVGMGGFSALRQVREGAEYKYVTTGDKQATIALATYGELFSITRQAIINDDLNMLTDVPMKLGRAAKSTIADLVYAILTSNPKISTDNVSLFDKAKHANVLESAAMDVASLDKARQLMRVQKEGERHLNIRPAFVLVPTAMESVANQVIRSSSVKGADINAGIINPVKDFATVIAEPRLDDNSQTTFYLAASKGSDTIEVAYLNGVDTPYIDQMEGFSVDGVTTKVRIDAGVAPVDHRGLVKCTA”, the protein production result is “failed”.
For “MPQRRPLRTMKWLIPGLWLASILFAHFRGRVRLSLSRQMLDHSVLLAPVNAFMVLTSRVPTTPYLTTSEIPELKVLDDNWETIRDEALKMAELRRIKAAERHDDIGFNSFFKYGWKRFYLKWYDARHPSAEELCPKTVAILKSLPKVKAAMFAELPPGGKLNPHRDPFSGSLRYHLGLATPNDDRCYIAVDGESYSWRDGESVVFDETYVHEAHNKSEGNRIILFCDVERPLKWRWAEAFNRWFGRVVMSAASSPNDAGDQTGAINKLTHAHWVIDQKRKQFKAWNRTVYKATKWGLIALVAIGFLAL”, the protein production result is on record as “failed”.
Turning to “MPQVETTSVFRADLLKEMESSTGTAPASTGAENLPAGSALLVVKRGPNAGARFLLDQPTTTAGRHPESDIFLDDVTVSRRHAEFRINEGEFEVVDVGSLNGTYVNREPRNAQVMQTGDEIQIGKFRLVFLAGPAELEHHHHHH”, the protein production entry is recorded as “not failed”.
With “MPRGLILATPQLPPDGTPFSARYDDVYHSTEGGLAQAHHVFLGGNGLPGGWQGKRSFTIVETGFGQGLNFLATWAAWRDDPQRCGRLDFVSVEKHPFDRAGLALVHAQEGALASLAEALRQAWPVPVPGVHRLVFDAGRVTLTLMLGDAETLLPQLSCAADAFYLDGFSPAKNPDLWQPGVFKQLARIARGGATLATYTAAGAVRHGLREAGFEVRKAPGFGRKRDMTVAAFPTHWRTRRGPAEAPVWPERHAIVLGAGLAGCSVAERLAARGWRITLIDEHEAPAGGASAHRAAAMHPHVSIDDSVLSRLSRAGNLLARRHWEALDRAGFATGFHPTGVLQLAEHADDAAEQQRIVQALGFPADFIAWLDAARAADRVGAGVPQGGWWFAQAGWVAPPDICRAALAAAGEAVELRWRTRIESLLRHDAGWRACDAQGNVIAHAPVVVLANSLDAVRLAPLASAALKPVRGQLTDVPVAALEDGVPWPRAVVCGDGYLLPRERGAPTVRVGSSFQPGETDPDARTADHAANLRRLAGLQPAHAAALARVDPARLLGYVGVRCVSANRLPLIGAVADEAAIMAPGFRLRGPHAALPRVPGLYAALAYGSRGLTWSVLGAELLAAQIDGGPLPLESELAAALDPGRFLMRALRHGKHAA” the entry was “failed”; with “MPRVIPPENLGCPPFRALTFDSLGLIKVTEARGQERGIPTVVNTWGEMNASRSVLAASIDDRLRNPLLAVARKDGNVEVINPCNGDLHFSYSVFGDDGCSPEDNEISALHLFRKKIDDQTERSCTLLTCTKKGDVSLRSVKFPDAHGNSTDDASPKTWKACGSGEILVGKVDGSENFSLFGGKRVEANIWDLEQCTKIWSAKCPPKNNLGIFTPTWFTSATFLSKDDHRKFVTGTKSHQVRLYDISTQRRPVLSFDFRETAITSIAEDPDGHTIYVGNASADLASFDIRTGKLLGSFLGKCSGSIRSVVRHPQHQVIASCGLDRYLRVYDVKTRQLISAVFLKQHLTGLVFDSGFSGEETAVANTVAEAATEEKMTIMDQEDDETEKAPVKRKKSKKEKRSREIVFEGEDDEENEDEIEKAPVKTKKSKKEKRSREKVSEGEEKDELRSKKTREHKKKTKIVKHNQED”, “failed”.
With “MPRYPVRPADHAQSAEGGVTAVDRALTLLTAFRVTDQTLSLSELSERASLVPSTVLRLLASLMHFGFVLRRPDGRYALGPAAARLNRVYAASFNLQDVVLPALQELVGQTRESASFHVRQGAHRLVLYRVSSPQPLSDQSHTGDLLPLDRGTGGHVLMAFSDTPGEFYEALRLRGYMASPVSDRSPELAGISAPVFDAQGMLAGALTLTMPVHRYKDAHIPVLREAAARLSAALGA” the entry was “failed”.
With “MPSENPIGKTMKSIDEQSLHNARRLFESGDIDRIEVGTTAGLQQIHRYLFGGLYDFAGQIREDNISKGGFRFANAMYLKEALVKIEQMPERTFEEIIAKYVEMNIAHPFLEGNGRSTRIWLDLVLKKNLKKVVNWQNVSKTLYLQAMERSPVNDLELRFLLKDNLTDDVDNREIIFKGIEQSYYYEGYEKG” the entry was “not failed”; with “MPSFLEISPDKLNRLIGTPGAPRIIDVRTDEDFALDPRLVPGSIRRDHAEVASWADSIDADAVVVVCHRGAKLSHGVAAYLRHAGIEAESLAGGFEAWAAAGPAVPEAKLSRRDAQGRTVWVTRARPKIDRIACPWLIRRFIDPNAVFLFVPAPEVVAVGERFGAAPFDIEDVFWSHRGELCTFDVMVEEFGLASEPLLRLAQIVRAADTARLDLAPEASGLLAASLGLSRMYSDDLEQLEAGMLLYDAFFRWCRDATEETHNWPAPKKRALEHHHHHH”, “not failed”; with “MPSIVKGIIPPVLTPMKSDRSIDFEALERLVEHLIAGGVDGLFALGSSGEVAFLSDEDRATVIREIVRIAAGRVPVYAGVIDMQVNRMLGHIKAAEEAGVD”, “not failed”.
In the case of “MPSLNQIFFGPPGTGKTYATVEATLQILDQPFLAKNAGSRSALKARFDELLAAGDVRFVTFHQSFSYEDFVEGLRATTDEQGQIRYEVVSGVFRSLCESVATELSGKYRAFKVGDRYGTGYKVTRATPDVVEIEKPQGKHLPIGMSLLNTLASYVDAGTFTIEELGNGRWDKKVPGSVLDPFLVNGYKNFLPSMVEHMLGKNEEGLFEPAPVQHSDAKVLIIDEINRGNVSRIFGELITLIEPSKRAGADEALEVTLPYSKERFSIPGNIHLIGTMNTADRSLAALDIALRRRFTFIEVPPNPELLDEVEVDGIAIDELLSLMNQRIAALLDRDHCLGHAYFMPLKDEPTLERLEGIFREQILPLLQEYFFEDWQRIQWVLNDQRKAPENSFLIQLSQDLIALFGDTVTVGQSNERWELNLPAFQKIESYLGVIDHNLKVGAPLEAKNVRTDGIDIRQSADGCIDVYRGGQHIKPTKPLLRELASKHGISSTSASGSELNTRSLGRKIIKFLSEQQG”, the protein production result is recorded as “failed”.
With “MPSLQDLYAAFRRIAPYTHRTPLLTSRLLDGLLGKRLLLKAEHLQKTGSFKARGALSKALALENPKGLLAVSSGNHAQGVAYAAQVLGVKALVVMPEDASPYKKACARAYGAEVVDRGVTAKNREEVARALQEETGYALIHPFDDPLVIAGQGTAGLELLAQAGRMGVFPGAVLAPVGGGGLLAGLATAVKALSPTTLVLGVEPEAADDAKRSLEAGRILRLEAPPRTRADGVRTLSLGERTFPILRERVDGILTVSEEALLEAERLLFTRTKQVVEPTGALPLAAVLEHGARLPQTLALLLSGGNRDFSP” the entry was “not failed”.
As for “MPSPRLQHSKPPRRLSRAQKHSSGSSNTSTANRRAHLRLCLERLKVLIPLGPDCTRHTTLGLLNKAKAHIKKLEEAERKSQHQLENLEREQRFLKWRLEQLQGPQEMERIRMDSIGSTISSDRSDSEREEIEVDVESTEFSHGEVDNISTTSISDIDDHSSLPSIGSDEGYSSASVKLSFTS”, the protein production result is “failed”.
Turning to “MPSSSLDISSALMIISLCALIDILSPGVLTVTAYLLLTQPNQLSSRLFVFLFITQLGYFITGLLLYFGGNSLLKRIEQLSQFDFINWFYILLGAVLVLISFSKPKETAKKRLISFIPKNTTIKGMIILGIIVFLIEFVTALPYFYSIFLMNHQTIETTPAILIIIGYNLVMVLPSLLLLGVNIIFKERLQQFLIKIRSKLNEAPISSLLVATGVIGAVFFNIGLRGILN”, the protein production entry is listed as “failed”.
With “MPSSSQYRRYQDPHHPSIPTPTTLFSQPSLEILGGGVAEELPELALCCDGTVVEGRSNCRCKARAVLPGGMRVRLSKTLAGILRHHPGRYGVRLTREGWARVSEVVEGLRKAGWSWVEEWHIVGVALHDPKGRYELRNGEIRARYGHSIPVNVEPLPGEPPPILYHGTTEEALPLIMERGIMRGRRLKVHLTSSLEDAVSTGRRHGNLVAVLLVDVECLRRRGLKVERMSKTVYTVDWVPPECIAEVRRESLGRSL” the entry was “not failed”.
With “MPSVSVNKQGIVKVNSALNMRSGPGSNYGVIGTLRNNDEVEIIKEVDGWYEIKFNGKSGYVSSQYIKVLEHHHHHH” the entry was “not failed”; with “MPSYGNLGRLGGRHEYGVLVAMTSSAELDRVRWAHQLRSYRIASVLRIGVVGLMVAAMVVGTSRSEWPQQIVLIGVYAVAALWALLLAYSASRRFFALRRFRSMGRLEPFAFTAVDVLILTGFQLLSTDGIYPLLIMILLPVLVGLDVSTRRAAVVLACTLVGFAVAVLGDPVMLRAIGWPETIFRFALYAFLCATALMVVRIEERHTRSVAGLSALRAELLAQTMTASEVLQRRIAEAIHDGPLQDVLAARQELIELDAVTPGDERVGRALAGLQSASERLRQATFELHPAVLEQVGLGPAVKQLAASTAQRSGIKISTDIDYPIRSGIDPIVFGVVRELLSNVVRHSGATTASVRLGITDEKCVLDVADDGVGVTGDTMARRLGEGHIGLASHRARVDAAGGVLVFLATPRGTHVCVELPLKR”, “failed”; with “MPTERPTTTAPVSLRERRRTAAAREILDAAEQHIGEHGPAALSLRAVARGLGMTVQALYHYFPNRDALVTALITKAYGELSDVLQAAADSVRADPATPRPVAVAEAYRGWGVARPEHFQLLYGTPLRYYAAPAEGPTTQAVRRMGAIFQRELFAGFTPAQLAAAEVPALSPSYREHLEQLPMHAQGDLPPAAASLFLSAWGHVHGLVVLEVFGHTAFLGDHQAEVFRTSVRMMLEDIHRRIPAA”, “not failed”.
With “MPTETFFNLPEEKRSRLIDVLLDEFAQNDYDSVSINRITERAGIAKGSFYQYFADKKDCYLYLIQLGIEQKTAFLRQTPPASTTDMFAYLRWLLDVGIQFQFHNPRLAQIAYKALYDDVPLPAETMQVIRHGSFAYFKQLVEQGIADGSLVPDLDADTAAFVLNVVFTELGNHLIERFAVNPAELLREGGIVLLQPAMRRVIEQVIDILERGMRRR” the entry was “not failed”.
“MPTICEFLGYKVYMFYQDHSPPHIHVIGKGFRAALSIPEGKLLAGTLPRRVQGVAKMWVRQEATALMQNWLRAEAGEVLQQVKPPEGWLEHHHHHH”: the protein production entry is on record as “failed”.
With “MPTIKDYYLPKRPTLLFSLHPEPTQAIINGTKILEYRRRFFARPFQAFVYTTGDNGGIQLFLRCDQGLQLVPEQLALVGALLQHDAPTTTAAYFEGAKAGLALPITAFTTLPNIPLAQLRRQFENFVTPRSYVFLDQPDRQAQLDWLLTQPCESLTILDWRKRYAALATLLQKLEHHHHHH” the entry was “not failed”; with “MPTLGFRFRAYTDEQTLRALKAQLKSACKIYNTLRWADIYFYQRDGKGLTRTELRQLALDLRKQDDEYKQLYSQVVQQVADRYYEAKKRFFEGLAHFPKEKKPHKHYSLVYPQYGWKILQVREIRKGSKKKLITLKLSNLGTFKVIVHRDFPLDKVKRVVVKLTRSERIYITFVVDHEFPKLPNTGKVVAIDVGVEKLIVTSDGEYFPNLRPYEKALWKVKHLHRELSRKKFLSHNWFKAKVKLARAYEYLKNLRTDLYMKLGKWFAEHYDVVVMEGIHVKQLIGKSLRSLRRRLSDVAFSELRDLIKYQLEKYGKKLILVNPAYTSKTCAKCGYVKEDLSLSDRVFVCPNCGWIADRDYNASLNILRGSGSERPLVWSSALYQYSGMAELLEHHHHHH”, “not failed”.
